Measurements as given in publication PMC6927192, “Comparative phosphorylation map of Dishevelled 3 links phospho-signatures to biological outputs” (Cell Communication and Signaling : CCS, 2019).
Square brackets hold non-standard residues; d marks the D form. Ends that are not written are not given here. pS = N[C@@H](COP(=O)(O)O)C(=O)O

Biological target: T1, Human DVL2 PDZ domain (aa 265–361) (human, UniProt O14641 265-361)
T1 construct: Dishevelled 2 (DVL2), human, PDZ domain, residues 265-361; 15N-labelled for the NMR titration; The pET construct has a TEV cleavage site after the tags; also called wt PDZ; wildtype PDZ; source: E. coli BL21-DE3(RIL), purified
T1 sequence (looked up): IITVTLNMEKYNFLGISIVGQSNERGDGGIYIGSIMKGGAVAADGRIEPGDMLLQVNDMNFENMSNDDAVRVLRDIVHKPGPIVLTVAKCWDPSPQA
Assay: NMR titration; series of 1H-15N HSQC spectra, 100 μM 15N-labeled PDZ (wild type or phosphomimicking mutant) with increasing amounts of DVL_C peptide (stock 800 μM); proteins stored in 20 mM Hepes (pH 6.8), 50 mM KCl; 700 MHz; qualitative analysis
Settings: both partners purified

binding result: binds
B1: DVL3_C peptide 698–716 with phosphorylated S700 (peptide, UniProt Q92997 698-716, looked up)
peptide: RQ[pS]FRMAMGNPSEFFVDVM
notes: Dishevelled 3 (DVL3), human, C-terminal residues 698-716; also called DVL3 C-terminal peptide; source: bought: KareBay Biochem, Inc. (New Jersey, USA)
